B1: 146R0 (Clone 146 with three spacer-FLAG tags, CHO-S supernatant) (ligand)
chain: FKIETTPESRYLAQIGDSVSLTCSTTGCESPLFFWRPLLDSPLNGKVTNEGTTSTLTMNPVSFGNEHSYLCTARCESRSLEKGIQVEIYSFPKDPEIHLSGPLEAGKPITVKCSVADVYPFDRLEIDLLKGDHLMKSQEFLEDADRKSLETKSLEVTFTPVIEDIGKVLVCRAKLHIDEMDSVPTVRQAVKELQVYISPGGGSDYKDDDDKGGGSDYKDDDDKGGGSDYKDDDDK
notes: assayed as concentrated, filtered crude supernatant
B2: 146R7 (ligand)
chain: FKIETTPESRYLAQIGDSVSLTCSTTGCESPLFFWRPLLDSPLNGKVTNEGTTSTLTMNPVSFGNEHSYLCTARCESRKLEKGIQVEIYSFPKDPEIHLSGPLEAGKPITVKCSVADVYPFDRLEIDLLKGDHLMKSQEFLEDADRKSLETKSLEVTFTPVIEDIGKVLVCRAKLHIDEMDSVPTVRQAVKELQVYISPGGGSDYKDDDDKGGGSDYKDDDDKGGGSDYKDDDDKGS
notes: Crude CHO-S supernatant, 3x spacer-FLAG tagged
B3: 146R1 (ligand)
chain: FKIETTPESRYLAQIGDSVSLTCSTTGCESPFFFWRPLLDSPLNGKVTNEGTTSTLTMNPVSFGNEHSYLCTARCESRSLEKGIQVEIYSFPKDPEIHLSGPLEAGKPITVKCSVADVYPFDRLEIDLLKGDHLMKSQEFLEDADRKSLETKSLEVTFTPVIEDIGKVLVCRAKLHIDEMDSVPTVRQAVKELQVYISPGGGSDYKDDDDKGGGSDYKDDDDKGGGSDYKDDDDKGS
notes: as for B2
B4: 146R3 (ligand)
chain: FKIETTPESRYLAQIGDSVSLTCSTTGCESPLFFWRTLLDSPLNGKVTNEGTTSTLTMNPVSFGNEHSYLCTARCESRSLEKGIQVEIYSFPKDPEIHLSGPLEAGKPITVKCSVADVYPFDRLEIDLLKGDHLMKSQEFLEDADRKSLETKSLEVTFTPVIEDIGKVLVCRAKLHIDEMDSVPTVRQAVKELQVYISPGGGSDYKDDDDKGGGSDYKDDDDKGGGSDYKDDDDKGS
notes: as for B2
B5: 146R5 (ligand)
chain: FKIETTPESRYLAQIGDSVSLTCSTTGCESPLFFWRPLIDSPLNGKVTNEGTTSTLTMNPVSFGNEHSYLCTARCESRSLEKGIQVEIYSFPKDPEIHLSGPLEAGKPITVKCSVADVYPFDRLEIDLLKGDHLMKSQEFLEDADRKSLETKSLEVTFTPVIEDIGKVLVCRAKLHIDEMDSVPTVRQAVKELQVYISPGGGSDYKDDDDKGGGSDYKDDDDKGGGSDYKDDDDKGS
notes: as for B2
B6: 146R13 (ligand)
chain: FKIETTPESRYLAQIGDSVSLTCSTTGCESPFFFWRPLLDSPLNGKVTNEGTTSTLTMNPVSFGNEHSYLCTARCESRKLEKGIQVEIYSFPKDPEIHLSGPLEAGKPITVKCSVADVYPFDRLEIDLLKGDHLMKSQEFLEDADRKSLETKSLEVTFTPVIEDIGKVLVCRAKLHIDEMDSVPTVRQAVKELQVYISPGGGSDYKDDDDKGGGSDYKDDDDKGGGSDYKDDDDKGS
notes: as for B2
B7: 146R2 (ligand)
chain: FKIETTPESRYLAQIGDSVSLTCSTTGCESPLFSWRPLLDSPLNGKVTNEGTTSTLTMNPVSFGNEHSYLCTARCESRSLEKGIQVEIYSFPKDPEIHLSGPLEAGKPITVKCSVADVYPFDRLEIDLLKGDHLMKSQEFLEDADRKSLETKSLEVTFTPVIEDIGKVLVCRAKLHIDEMDSVPTVRQAVKELQVYISPGGGSDYKDDDDKGGGSDYKDDDDKGGGSDYKDDDDKGS
notes: as for B2
B8: 146R4 (ligand)
chain: FKIETTPESRYLAQIGDSVSLTCSTTGCESPLFFWRPQLDSPLNGKVTNEGTTSTLTMNPVSFGNEHSYLCTARCESRSLEKGIQVEIYSFPKDPEIHLSGPLEAGKPITVKCSVADVYPFDRLEIDLLKGDHLMKSQEFLEDADRKSLETKSLEVTFTPVIEDIGKVLVCRAKLHIDEMDSVPTVRQAVKELQVYISPGGGSDYKDDDDKGGGSDYKDDDDKGGGSDYKDDDDKGS
notes: as for B2
B9: 146R6 (ligand)
chain: FKIETTPESRYLAQIGDSVSLTCSTTGCESPLFFWRPLLDSPLNGKVTNEGTTSTLTMNPVSFGNEHSYLCTATCESRSLEKGIQVEIYSFPKDPEIHLSGPLEAGKPITVKCSVADVYPFDRLEIDLLKGDHLMKSQEFLEDADRKSLETKSLEVTFTPVIEDIGKVLVCRAKLHIDEMDSVPTVRQAVKELQVYISPGGGSDYKDDDDKGGGSDYKDDDDKGGGSDYKDDDDKGS
notes: as for B2
B10: 146R8 (ligand)
chain: FKIETTPESRYLAQIGDSVSLTCSTTGCESPLFFWRPLLDSPLNGKVTNEGTTSTLTMNPVSFGNEHSYLCTATCESRKLEKGIQVEIYSFPKDPEIHLSGPLEAGKPITVKCSVADVYPFDRLEIDLLKGDHLMKSQEFLEDADRKSLETKSLEVTFTPVIEDIGKVLVCRAKLHIDEMDSVPTVRQAVKELQVYISPGGGSDYKDDDDKGGGSDYKDDDDKGGGSDYKDDDDKGS
notes: as for B2
B11: 146R9 (ligand)
chain: FKIETTPESRYLAQIGDSVSLTCSTTGCESPFFFWRPQLDSPLNGKVTNEGTTSTLTMNPVSFGNEHSYLCTARCESRSLEKGIQVEIYSFPKDPEIHLSGPLEAGKPITVKCSVADVYPFDRLEIDLLKGDHLMKSQEFLEDADRKSLETKSLEVTFTPVIEDIGKVLVCRAKLHIDEMDSVPTVRQAVKELQVYISPGGGSDYKDDDDKGGGSDYKDDDDKGGGSDYKDDDDKGS
notes: as for B2
B12: 146R10 (ligand)
chain: FKIETTPESRYLAQIGDSVSLTCSTTGCESPFFFWRPLLDSPLNGKVTNEGTTSTLTMNPVSFGNEHSYLCTATCESRKLEKGIQVEIYSFPKDPEIHLSGPLEAGKPITVKCSVADVYPFDRLEIDLLKGDHLMKSQEFLEDADRKSLETKSLEVTFTPVIEDIGKVLVCRAKLHIDEMDSVPTVRQAVKELQVYISPGGGSDYKDDDDKGGGSDYKDDDDKGGGSDYKDDDDKGS
notes: as for B2
B13: 146R11 (ligand)
chain: FKIETTPESRYLAQIGDSVSLTCSTTGCESPLFFWRPQLDSPLNGKVTNEGTTSTLTMNPVSFGNEHSYLCTATCESRKLEKGIQVEIYSFPKDPEIHLSGPLEAGKPITVKCSVADVYPFDRLEIDLLKGDHLMKSQEFLEDADRKSLETKSLEVTFTPVIEDIGKVLVCRAKLHIDEMDSVPTVRQAVKELQVYISPGGGSDYKDDDDKGGGSDYKDDDDKGGGSDYKDDDDKGS
notes: as for B2
B14: 146R12 (ligand)
chain: FKIETTPESRYLAQIGDSVSLTCSTTGCESPFFSWRPLLDSPLNGKVTNEGTTSTLTMNPVSFGNEHSYLCTATCESRKLEKGIQVEIYSFPKDPEIHLSGPLEAGKPITVKCSVADVYPFDRLEIDLLKGDHLMKSQEFLEDADRKSLETKSLEVTFTPVIEDIGKVLVCRAKLHIDEMDSVPTVRQAVKELQVYISPGGGSDYKDDDDKGGGSDYKDDDDKGGGSDYKDDDDKGS
notes: as for B2
B15: 146R14 (ligand)
chain: FKIETTPESRYLAQIGDSVSLTCSTTGCESPLFFWRPLIDSPLNGKVTNEGTTSTLTMNPVSFGNEHSYLCTARCESRKLEKGIQVEIYSFPKDPEIHLSGPLEAGKPITVKCSVADVYPFDRLEIDLLKGDHLMKSQEFLEDADRKSLETKSLEVTFTPVIEDIGKVLVCRAKLHIDEMDSVPTVRQAVKELQVYISPGGGSDYKDDDDKGGGSDYKDDDDKGGGSDYKDDDDKGS
notes: as for B2
B16: 146R15 (ligand)
chain: FKIETTPESRYLAQIGDSVSLTCSTTGCESPFFFWRPQLDSPLNGKVTNEGTTSTLTMNPVSFGNEHSYLCTARCESRKLEKGIQVEIYSFPKDPEIHLSGPLEAGKPITVKCSVADVYPFDRLEIDLLKGDHLMKSQEFLEDADRKSLETKSLEVTFTPVIEDIGKVLVCRAKLHIDEMDSVPTVRQAVKELQVYISPGGGSDYKDDDDKGGGSDYKDDDDKGGGSDYKDDDDKGS
notes: as for B2
B17: 146R16 (ligand)
chain: FKIETTPESRYLAQIGDSVSLTCSTTGCESPFFFWRPLIDSPLNGKVTNEGTTSTLTMNPVSFGNEHSYLCTARCESRSLEKGIQVEIYSFPKDPEIHLSGPLEAGKPITVKCSVADVYPFDRLEIDLLKGDHLMKSQEFLEDADRKSLETKSLEVTFTPVIEDIGKVLVCRAKLHIDEMDSVPTVRQAVKELQVYISPGGGSDYKDDDDKGGGSDYKDDDDKGGGSDYKDDDDKGS
notes: Crude CHO-S supernatant, 3x spacer-FLAG tagged; The cell prints N: 131
B18: 146R17 (ligand)
chain: FKIETTPESRYLAQIGDSVSLTCSTTGCESPFFFWRPLIDSPLNGKVTNEGTTSTLTMNPVSFGNEHSYLCTARCESRKLEKGIQVEIYSFPKDPEIHLSGPLEAGKPITVKCSVADVYPFDRLEIDLLKGDHLMKSQEFLEDADRKSLETKSLEVTFTPVIEDIGKVLVCRAKLHIDEMDSVPTVRQAVKELQVYISPGGGSDYKDDDDKGGGSDYKDDDDKGGGSDYKDDDDKGS
notes: as for B2
B19: 146R18 (ligand)
chain: FKIETTPESRYLAQIGDSVSLTCSTTGCESPFFFWRPLIDSPLNGKVTNEGTTSTLTMNPVSFGNEHSYLCTATCESRKLEKGIQVEIYSFPKDPEIHLSGPLEAGKPITVKCSVADVYPFDRLEIDLLKGDHLMKSQEFLEDADRKSLETKSLEVTFTPVIEDIGKVLVCRAKLHIDEMDSVPTVRQAVKELQVYISPGGGSDYKDDDDKGGGSDYKDDDDKGGGSDYKDDDDKGS
notes: as for B2
B20: 146R19 (ligand)
chain: FKIETTPESRYLAQIGDSVSLTCSTTGCESPFFFWRPQIDSPLNGKVTNEGTTSTLTMNPVSFGNEHSYLCTARCESRKLEKGIQVEIYSFPKDPEIHLSGPLEAGKPITVKCSVADVYPFDRLEIDLLKGDHLMKSQEFLEDADRKSLETKSLEVTFTPVIEDIGKVLVCRAKLHIDEMDSVPTVRQAVKELQVYISPGGGSDYKDDDDKGGGSDYKDDDDKGGGSDYKDDDDKGS
notes: as for B2

The binders below were run against T1, human VLA4-Fc (alpha4-Fc/beta1-Fc heterodimer) (human) (assay: SPR (BIACORE), crude CHO-S supernatant on VLA4-Fc).
T1 construct: Soluble heterodimer from CHO cells, Protein A purified; also called VLA-Fc
T1 sequence (chain, as listed by the source limits assumed, form in doubt, chain 1 of 2): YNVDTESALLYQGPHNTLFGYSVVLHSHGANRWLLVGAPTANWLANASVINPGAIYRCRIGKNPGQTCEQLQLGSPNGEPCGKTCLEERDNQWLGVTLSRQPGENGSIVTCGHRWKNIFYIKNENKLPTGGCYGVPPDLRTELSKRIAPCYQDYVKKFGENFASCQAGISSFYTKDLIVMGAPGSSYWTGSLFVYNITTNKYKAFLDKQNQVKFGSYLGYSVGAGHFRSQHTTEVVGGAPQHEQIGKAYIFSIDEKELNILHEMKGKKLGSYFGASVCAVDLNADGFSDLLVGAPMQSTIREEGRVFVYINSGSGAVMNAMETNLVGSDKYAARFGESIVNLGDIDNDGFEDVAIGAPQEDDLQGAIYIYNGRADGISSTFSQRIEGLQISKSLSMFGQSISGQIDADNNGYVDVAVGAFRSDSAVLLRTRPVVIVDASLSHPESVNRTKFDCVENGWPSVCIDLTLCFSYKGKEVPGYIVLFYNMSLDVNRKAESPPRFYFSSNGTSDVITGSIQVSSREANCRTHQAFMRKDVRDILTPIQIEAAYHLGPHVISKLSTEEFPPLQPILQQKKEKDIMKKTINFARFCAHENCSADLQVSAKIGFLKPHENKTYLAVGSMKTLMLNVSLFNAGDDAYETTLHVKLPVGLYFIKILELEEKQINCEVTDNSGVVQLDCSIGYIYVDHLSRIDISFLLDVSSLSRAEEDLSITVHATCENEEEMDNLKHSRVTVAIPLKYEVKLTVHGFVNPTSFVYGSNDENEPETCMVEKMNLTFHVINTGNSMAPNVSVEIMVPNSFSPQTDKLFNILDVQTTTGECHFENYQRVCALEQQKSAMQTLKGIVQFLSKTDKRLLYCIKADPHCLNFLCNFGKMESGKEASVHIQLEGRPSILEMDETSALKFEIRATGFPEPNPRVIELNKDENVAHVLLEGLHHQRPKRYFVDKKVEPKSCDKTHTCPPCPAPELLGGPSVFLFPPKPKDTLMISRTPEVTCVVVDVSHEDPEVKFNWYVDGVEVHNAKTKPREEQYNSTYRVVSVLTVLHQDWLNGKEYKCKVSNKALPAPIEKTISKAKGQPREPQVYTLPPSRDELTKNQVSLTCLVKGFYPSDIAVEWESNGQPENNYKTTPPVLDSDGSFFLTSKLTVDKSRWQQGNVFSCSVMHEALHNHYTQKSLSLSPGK
T1 sequence (chain, as listed by the source limits assumed, form in doubt, chain 2 of 2): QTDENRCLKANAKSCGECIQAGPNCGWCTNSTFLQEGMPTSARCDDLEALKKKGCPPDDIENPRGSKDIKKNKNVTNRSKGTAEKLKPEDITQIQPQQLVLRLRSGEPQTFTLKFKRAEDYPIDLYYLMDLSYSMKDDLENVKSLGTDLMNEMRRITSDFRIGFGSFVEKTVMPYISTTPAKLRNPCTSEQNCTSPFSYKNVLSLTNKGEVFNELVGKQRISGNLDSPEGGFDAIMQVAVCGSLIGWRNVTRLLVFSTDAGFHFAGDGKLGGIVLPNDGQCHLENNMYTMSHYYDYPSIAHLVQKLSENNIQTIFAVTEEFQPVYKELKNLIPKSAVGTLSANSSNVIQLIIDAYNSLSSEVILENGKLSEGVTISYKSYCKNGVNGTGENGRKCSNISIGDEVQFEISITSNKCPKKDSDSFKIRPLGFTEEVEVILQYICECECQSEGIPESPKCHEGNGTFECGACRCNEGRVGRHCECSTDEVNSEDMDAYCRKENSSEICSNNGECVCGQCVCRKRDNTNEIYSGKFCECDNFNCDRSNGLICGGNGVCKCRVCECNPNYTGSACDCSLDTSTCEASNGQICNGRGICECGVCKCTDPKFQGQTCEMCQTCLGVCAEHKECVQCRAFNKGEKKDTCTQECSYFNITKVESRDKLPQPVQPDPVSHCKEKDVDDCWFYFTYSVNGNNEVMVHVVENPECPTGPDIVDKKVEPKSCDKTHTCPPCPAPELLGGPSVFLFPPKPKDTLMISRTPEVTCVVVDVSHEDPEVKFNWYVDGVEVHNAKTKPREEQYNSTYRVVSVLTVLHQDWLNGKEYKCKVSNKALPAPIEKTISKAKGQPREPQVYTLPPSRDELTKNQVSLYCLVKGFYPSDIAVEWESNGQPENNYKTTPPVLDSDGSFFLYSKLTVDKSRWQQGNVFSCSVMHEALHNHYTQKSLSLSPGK
For B1, the “fold weaker binding relative to 146R0 (KD(variant)/KD(146R0))” value (shortened to “fold weaker binding relative to 146R0”) was 1 fold.
With B2 the “fold weaker binding relative to 146R0” value was 1 fold.
In the case of B3, the “fold weaker binding relative to 146R0” value is reported as 1.1 fold.
For B4, the “fold weaker binding relative to 146R0” value was 1.3 fold.
In the case of B5, the “fold weaker binding relative to 146R0” value is reported as 1.2 fold.
For B6, the “fold weaker binding relative to 146R0” value was 2.3 fold.
B7 was tested, and the “fold weaker binding relative to 146R0” value was 2.7 fold.
B8 was tested, and the “fold weaker binding relative to 146R0” value was 2.6 fold.
In the case of B9, the “fold weaker binding relative to 146R0” value is reported as 1.8 fold.
B10 was tested, and the “fold weaker binding relative to 146R0” value was 1.7 fold.
For B11, the “fold weaker binding relative to 146R0” value was 2 fold.
With B12 the “fold weaker binding relative to 146R0” value was 2.7 fold.
For B13, the “fold weaker binding relative to 146R0” value was 25.9 fold.
For B14, the “fold weaker binding relative to 146R0” value was 21.7 fold.
B15 was tested, and the “fold weaker binding relative to 146R0” value was 1.5 fold.
B16 was tested, and the “fold weaker binding relative to 146R0” value was 5.3 fold.
B17 was tested, and the “fold weaker binding relative to 146R0” value was 1.1 fold.
For B18, the “fold weaker binding relative to 146R0” value was 2.8 fold.
B19 was tested, and the “fold weaker binding relative to 146R0” value was 6.3 fold.
For B20, the “fold weaker binding relative to 146R0” value was 40 fold.

From patent US20120135912A1 (PERSEID THERAPEUTICS, published 2012)
